Molecular target: endogenous β-catenin (human) (UniProt P35222)
Test: cell-based or functional assay

Chain of endogenous β-catenin (human) (P35222 2-781 limits assumed): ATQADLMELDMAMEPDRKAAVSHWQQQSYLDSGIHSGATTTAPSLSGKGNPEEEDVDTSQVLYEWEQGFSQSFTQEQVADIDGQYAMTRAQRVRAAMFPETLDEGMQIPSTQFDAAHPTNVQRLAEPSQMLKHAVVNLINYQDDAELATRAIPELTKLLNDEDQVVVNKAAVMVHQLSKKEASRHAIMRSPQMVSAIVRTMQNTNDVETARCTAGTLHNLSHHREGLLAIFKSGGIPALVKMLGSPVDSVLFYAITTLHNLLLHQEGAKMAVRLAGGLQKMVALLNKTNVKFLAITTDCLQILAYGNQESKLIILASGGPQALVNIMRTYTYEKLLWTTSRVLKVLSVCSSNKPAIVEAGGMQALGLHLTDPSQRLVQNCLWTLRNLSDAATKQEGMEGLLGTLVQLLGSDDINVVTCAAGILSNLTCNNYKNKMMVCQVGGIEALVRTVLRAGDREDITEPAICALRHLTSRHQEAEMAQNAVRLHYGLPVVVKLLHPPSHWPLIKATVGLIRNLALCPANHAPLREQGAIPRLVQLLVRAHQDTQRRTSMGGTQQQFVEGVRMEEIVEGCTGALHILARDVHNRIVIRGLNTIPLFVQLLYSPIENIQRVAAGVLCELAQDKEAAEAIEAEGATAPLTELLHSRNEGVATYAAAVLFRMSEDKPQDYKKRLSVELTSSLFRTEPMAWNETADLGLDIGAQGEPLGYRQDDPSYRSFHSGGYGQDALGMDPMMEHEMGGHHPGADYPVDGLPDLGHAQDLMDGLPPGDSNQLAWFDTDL

In the case of “SIRT1 overexpressed from pBABE-Puro-hSir2(SIRT1) (from UniProt Q96EB6 2-747)”, the fold decrease in Super8XTopflash-Luciferase-PEST reporter activity in DLD1 cells is reported as 2 fold.
